Residue numbers refer to the chain shown, from its start.
B1: MLC021: unconjugated GLP-1/GDF15 fusion protein, linker of at least 80 residues (protein)
chain: HGEGTFTSDVSSYLEEQAAKEFIAWLVRGGGGQEPGAQPGQEPGAQPGQEPGAQPGQEPGAQPGQEPGAQPGQEPGAQPGAQPGAQPGAQPGAQPGAQPGAQPGAQPGAQPARQGDHCPLGPGRCCRLHTVRASLEDLGWADWVLSPREVQVTMCIGACPSQFRAANLHAQIKTSLHRLKPDTVPAPCCVPASYNPMVLIQKTDTGVSLQTYDDLLAKDCHCI
B2: MLC047: fusion polypeptide SEQ ID NO: 330 conjugated with Moiety A at 40K of linker (conjugate)
chain: B1 chain with K20R, P71K, K180R, K202R, K218R

How the values were obtained:
[1] = Body weight and food intake in C57BL/6 mice, unconjugated fusion proteins, 30 nmol/kg daily 10 days; type: in vivo
Method: 10 week old male C57BL/6 mice were injected everyday subcutaneously with 15 nmol/kg of the fusion protein conjugates (i.e., MLC002, MLC 004, MLC 005, MLC 006, MLC 007, MLC 008, and MLC 009) for 14 days. Food intake and body weight were measured daily and five animals were used for each treatment group. Body weight (BW) was monitored for each individual animal, but food intake for each group animals was measured together. Day 1 and Day 14 are first day and last day of molecule dosage. % BW loss=100*(BW on Day n-BW on Day 1)/(BW on Day 1). Cumulative food intake on Day n represents sum of food intake from Day 1 to Day n. Data are indicated as mean values and standard error (SEM) or pooled values. Statistical analysis was performed by One-way ANOVA. Body weight reduction on Day 11 is calculated by −1*(% BW loss−% BW loss of vehicle group); Cumulative food intake reduction is calculated by −100*(cumulative food intake-cumulative food intake of vehicle)/cumulative food intake of vehicle.
As described in the above method, a daily dose of 30 nmol/kg of the unconjugated fusion proteins (i.e., MLC100, MLC023, MLC022, MLC020, MLC003, MLC124, MLC021, MLC019, MLC102) were administered to C57BL/6 for 10 days. Data were calculated as above method. Day 1 and Day 10 are first day and last day of administration.

[2] = Additive or synergistic effect: body weight and food intake in C57BL/6 mice, 30 nmol/kg daily sc 10 days; type: in vivo; settings: versus negative controls MLC096 and MLC097
Method: FIGS. 7A-7B show In vivo efficacy in C57 lean mice. To evaluate the body weight and food intake effects of the fusion proteins, 10 week old male C57BL/6J mice were dosed everyday subcutaneously with 30 nmol/kg protein for 10 days. Food intake and body weight were measured daily. […] Data are expressed as mean values and standard error (SEM) for FIG. 7A. n=5 for each treatment group. For FIG. 7B, a pooled food intake was measured for each treatment group.
10 week old male C57BL/6 mice were injected everyday subcutaneously with 30 nmol/kg of the unconjugated fusion proteins (i.e., MLC096, MLC097 and MLCO21) for 10 days. Food intake and body weight were measured daily and five animals were used for each treatment group. Body weight (BW) was monitored for each individual animal, but food intake for each group animals was measured together. Day 1 and Day 10 are first day and last day of molecule dosage. % BW loss=100*(BW on Day n-BW on Day 1)/(BW on Day 1). Cumulative food intake on Day n represents sum of food intake from Day 1 to Day n. Data are indicated as mean values and standard error (SEM) or pooled values. Statistical analysis was performed by One-way ANOVA.
As discussed above, MLC096 and MLC097 were used as negative controls, as they contained known inactivating mutation in GDF15 or GLP-1.

[3] = Body weight and food intake in C57BL/6 mice, fusion protein conjugates, 30 nmol/kg daily 10 days; type: in vivo
Summary of the method: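 Male C57BL/6 mice received fusion protein conjugates by daily subcutaneous injection, with dosing running from Day 1 to Day 10. Body weight was recorded daily per animal and food intake daily per group. Body weight reduction was expressed relative to vehicle percent loss from Day 1. Cumulative food intake reduction was expressed as percent decrease versus vehicle.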

[4] = Pharmacokinetic measurement in mouse, single sc dose 30 nmol/kg, plasma ELISA; settings: single sc dose 30 nmol/kg
[5] = cynomolgus monkey, in vivo, sc, 5 nmol/kg
[6] = mouse, in vivo, sc, 30 nmol/kg
[7] = Efficacy in db/db mice: body weight, food intake, glucose, biomarkers, daily sc 14 days; type: in vivo
[8] = PK study in non-human primates, single sc dose 5 nmol/kg, plasma ELISA; settings: monkey, single sc dose 5 nmol/kg
[9] = C57 mice, 30 nmol/kg daily, Day11, unconjugated fusion proteins
[10] = 30 nmol/kg, FIG. 5A-E, versus Semaglutide, Tirzepatide and MLC014

Row | Molecule | Body weight reduction at 30 nmol/kg (% reduction compared to vehicle)(Day11) [1, 9] [%] | Cumulative food intake reduction at 30 nmol/kg (% reduction compared to vehicle)(Day11) [1, 9] [%] | in vivo efficacy (food intake and body weight reduction) ([1]; unconjugated fusion proteins, 30 nmol/kg daily 10 days, by linker length) | body weight reduction efficacy [2] | food intake [2] | Body weight reduction at 30 nmol/kg (% reduction compared to vehicle)(Day11) [3] [%] | Cumulative food intake reduction at 30 nmol/kg (% reduction compared to vehicle)(Day11) [3] [%] | Tmax [4] [h] | AUC0-96 h [5] [µM·h] | AUC0-24 h [6] [µM·h] | Cmax [6] [nM] | Terminal t1/2 [6] [h] | body weight loss [7, 10] | food intake suppression [7, 10] | efficacy ([7]; FIG. 5 study) | Tmax [8] [h]
1 | B1 | 22.1 | 48.7 | the most significant results among all the tested fusion proteins | much better body weight reduction efficacy | decreased food intake |  |  |  |  |  |  |  |  |  |  | 
2 | B2 |  |  |  |  |  | 24.7 | 51.2 | 10.7 | 1.541 | 1.2468 | 71.9 | 9.3 | sustainable and much better effect | sustainable and much better effect | better efficacy than Semaglutide and GDF15 derivative (MLC014) | 16

Reference: patent publication US11453711B2, “Fusion proteins of GLP-1 and GDF15 and conjugates thereof” (BEIJING QL BIOPHARMACEUTICAL CO., LTD., priority 2019, dated 2022)
